B1: Abx-198: Human anti-GCC SLAM mAb, IgG1,k; VH SEQ ID NO:42, VL SEQ ID NO:44 (antibody, V domains shown)
VH: EVQLLESGGGLVQPGGSLRLSCAASGFTFSSYAMSWVRQAPGKGLDWVSDISGSGGSTYYADSVKGRFTISRDNSKNTLYLQMHSLSAEDTAIYYCAKRRWQGYFDLWGRGTLVTVSS
VL: EIVLTQSPGTLSLSPGERATLSCRARQRVDSRYLAWYQQKPGQAPRLLIYGASSRATGIPDRFSGSGSGTDFTLTISRLEPEDFAVYYCQQYGSSPLTFGGGTKVEIK
B2: 8F1: Mouse anti-GCC hybridoma mAb, IgG1,k; VH SEQ ID NO:10, VL SEQ ID NO:12 (antibody, V domains shown)
VH: QVQLQQPGAELVKPGASVQMSCKASGYIFTGYWMYWVKQRPGQGLEWIGRIHPSDSNTNYNQKFKGKATLTVDKSSSTAYMQLSSLTSEDSAVYYCTHALAYWGQGTLVTVS
VL: DVVLTQTPLTLSITIGQPASISCKSSQSLLYSNGKTYLSWLLQRPGQSPKRLIYLVSQLDSGVPDRFTGSGSGTDFTLKISRVEAEDLGVYYCVQGTHLFTFGSGTKLEIK
B3: 3G1: Mouse anti-GCC hybridoma mAb, IgG1,k; VH SEQ ID NO:2, VL SEQ ID NO:4 (antibody, V domains shown)
VH: QVQLKESGPGLVAPSQSLSITCTVSGFSLSRNAISWVRQPPGKGLEWLGVIWTGGGTNYNSALKSRLSIRKENSKSQVFLKMNSLQTEDTARYFCARSGYDGFDYWGQGTLVTVSA
VL: QIVLTQSPAIMSASPGEKVTMTCSASSSVNYMHWYQQKSGTSPKRWIYDTSKLASGVPARFSGSGSGTSYSLTITSMEAEDAATYYCQQWSGNPYTFGGGTKLEIK

Test system: GCC 20-mer peptides (aa 1-440)
Assay: Epitope mapping by peptide array
Format: binding, human
Details: 20-mer peptides with 15 aa overlap, GCC aa 1-440
Description: Multiple strategies were initiated to identify epitopes. Peptide array. 20-mer peptides, with 15 aa overlap were generated, covering the extracellular domain (ECD) into the transmembrane domain of GCC (aa 1-440). Peptides were synthesized and provided as arrays, immobilized on glass slides. Arrays were hybridized with each of the anti-GCC antibodies to determine if linear peptides were sufficient for binding. […] The sequence, […] (SEQ ID NO:225) is spanned by these peptides. A region of overlap among the peptides is […] (SEQ ID NO:314). […] The sequence, […] (SEQ ID NO:226), and the sequence […] (SEQ ID NO:315) overlaps the two peptides.

Row | Molecule | Peptides bound in peptide array
1 | B1 | peptides 55 and 56
2 | B2 | peptides 55, 56 and 57
3 | B3 | peptides 55, 56 and 57
